Experiments:
Test in all cases: IEDB peptide-MHC binding, purified MHC/competitive/radioactivity; filed as Kd, often an IC50 or EC50 that approximates it; ≥ and ≤ were set here for values at or beyond the usual limits of such assays
Conditions in all cases: source organism: Homo sapiens
[1] = biological target: HLA-A*31:01
[2] = biological target: HLA-A*03:01
[3] = biological target: HLA-A*68:01
[4] = biological target: HLA-A*11:01
[5] = biological target: HLA-A*33:01

Row | Kd [1] | Kd [2] | Kd [3] | Kd [4] | Kd [5] | Sequence
1 | 11 nM | 570 nM | 1090 nM | 656 nM | 106 nM | LLGPGRPYR
2 | 8.3 nM | 54 nM | 8.5 nM | 8.3 nM | 14 nM | MSLQRQFLR

— the Immune Epitope Database (IEDB)
